From publication PMC4627094

Tests used:
APOBEC3G (A3G) [1] = target: T1, APOBEC3G (A3G) (human, UniProt Q9HC16 1-384); test: fluorescence anisotropy; 10 mM MgCl2; 40 mM Tris pH 7.2, 50 mM NaCl, 10 mM MgCl2, 1 mM DTT, 0.1% Triton X-100, 2% glycerol, 37 C 20 min; FA with 2 nM labeled NA; UV cross-linking in 1X PBS, 37 C 20
APOBEC3G (A3G) [2] = target: T1, APOBEC3G (A3G); test: EMSA; 37 C, 2.0 uM RNA; 40 mM Tris pH 7.2, 50 mM NaCl, 10 mM MgCl2, 1 mM DTT, 0.1% Triton X-100, 2% glycerol, 37 C 20 min; FA with 2 nM labeled NA; UV cross-linking in 1X PBS, 37 C 20
APOBEC3G (A3G) [3] = target: T1, APOBEC3G (A3G); test: competition (fluorescence anisotropy); vs labeled 25 nt Sub RNA (N2); 40 mM Tris pH 7.2, 50 mM NaCl, 10 mM MgCl2, 1 mM DTT, 0.1% Triton X-100, 2% glycerol, 37 C 20 min; FA with 2 nM labeled NA; UV cross-linking in 1X PBS, 37 C 20
APOBEC3G (A3G) [4] = target: T1, APOBEC3G (A3G); test: competition (fluorescence anisotropy); vs labeled 25 nt Sub ssDNA (N1); 40 mM Tris pH 7.2, 50 mM NaCl, 10 mM MgCl2, 1 mM DTT, 0.1% Triton X-100, 2% glycerol, 37 C 20 min; FA with 2 nM labeled NA; UV cross-linking in 1X PBS, 37 C 20

T1 sequence (Q9HC16 whole entry): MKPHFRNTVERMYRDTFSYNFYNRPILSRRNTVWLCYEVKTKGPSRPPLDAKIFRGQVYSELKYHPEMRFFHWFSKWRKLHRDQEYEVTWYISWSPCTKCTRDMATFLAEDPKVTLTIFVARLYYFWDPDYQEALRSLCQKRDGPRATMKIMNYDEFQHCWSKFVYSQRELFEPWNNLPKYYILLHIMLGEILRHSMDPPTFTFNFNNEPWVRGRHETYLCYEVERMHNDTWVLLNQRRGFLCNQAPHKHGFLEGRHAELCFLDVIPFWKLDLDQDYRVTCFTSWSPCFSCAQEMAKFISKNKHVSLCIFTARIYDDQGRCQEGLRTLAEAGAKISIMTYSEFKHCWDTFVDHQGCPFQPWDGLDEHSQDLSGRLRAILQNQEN

TTATTUUUAAGGATTTATTTATTTA (ssDNA, dU at positions 6-8) [25 nt Sub ssDNA, Alexa 647]
Kd (APOBEC3G (A3G) [1]): 3.8 nM

UUAUUUUUAAGGAUUUAUUUAUUUA (ssRNA) [25 nt Sub RNA, Alexa 647]
Kd (APOBEC3G (A3G) [1]): 2.9 nM

CAUAUAUGAUACAAUUUGAUCAGUA (ssRNA) [25 nt ApoB RNA]
binding result (APOBEC3G (A3G) [2]): binds

TTATTUUUAAGGATT (ssDNA, dU at positions 6-8) [15 nt Sub ssDNA, Alexa 647]
Kd (APOBEC3G (A3G) [1]): 10 nM

UUAUUUUUAAGGAUU (ssRNA) [15 nt Sub RNA, Alexa 647]
Kd (APOBEC3G (A3G) [1]): 4.4 nM

TTATTUUUAAGGATTTATTTATTTA (ssDNA, dU at positions 6-8) [25 nt Sub ssDNA (unlabeled or 32P)]
IC50 (APOBEC3G (A3G) [3]): 22 nM | IC50 (APOBEC3G (A3G) [4]): 15 nM

UUAUUUUUAAGGAUUUAUUUAUUUA (ssRNA) [25 nt Sub RNA, unlabeled]
IC50 (APOBEC3G (A3G) [3]): 115 nM | IC50 (APOBEC3G (A3G) [4]): 57 nM
